Laboratory results: article PMC7035113 (Nature, 2020)

Columns and labels:
[1] = molecular target: T1, SA2-SCC1 complex (SA2 80-1060 in complex with SCC1 281-420) (human | , UniProt Q8N3U4;O60216); assay: ITC
T1 sequence 1: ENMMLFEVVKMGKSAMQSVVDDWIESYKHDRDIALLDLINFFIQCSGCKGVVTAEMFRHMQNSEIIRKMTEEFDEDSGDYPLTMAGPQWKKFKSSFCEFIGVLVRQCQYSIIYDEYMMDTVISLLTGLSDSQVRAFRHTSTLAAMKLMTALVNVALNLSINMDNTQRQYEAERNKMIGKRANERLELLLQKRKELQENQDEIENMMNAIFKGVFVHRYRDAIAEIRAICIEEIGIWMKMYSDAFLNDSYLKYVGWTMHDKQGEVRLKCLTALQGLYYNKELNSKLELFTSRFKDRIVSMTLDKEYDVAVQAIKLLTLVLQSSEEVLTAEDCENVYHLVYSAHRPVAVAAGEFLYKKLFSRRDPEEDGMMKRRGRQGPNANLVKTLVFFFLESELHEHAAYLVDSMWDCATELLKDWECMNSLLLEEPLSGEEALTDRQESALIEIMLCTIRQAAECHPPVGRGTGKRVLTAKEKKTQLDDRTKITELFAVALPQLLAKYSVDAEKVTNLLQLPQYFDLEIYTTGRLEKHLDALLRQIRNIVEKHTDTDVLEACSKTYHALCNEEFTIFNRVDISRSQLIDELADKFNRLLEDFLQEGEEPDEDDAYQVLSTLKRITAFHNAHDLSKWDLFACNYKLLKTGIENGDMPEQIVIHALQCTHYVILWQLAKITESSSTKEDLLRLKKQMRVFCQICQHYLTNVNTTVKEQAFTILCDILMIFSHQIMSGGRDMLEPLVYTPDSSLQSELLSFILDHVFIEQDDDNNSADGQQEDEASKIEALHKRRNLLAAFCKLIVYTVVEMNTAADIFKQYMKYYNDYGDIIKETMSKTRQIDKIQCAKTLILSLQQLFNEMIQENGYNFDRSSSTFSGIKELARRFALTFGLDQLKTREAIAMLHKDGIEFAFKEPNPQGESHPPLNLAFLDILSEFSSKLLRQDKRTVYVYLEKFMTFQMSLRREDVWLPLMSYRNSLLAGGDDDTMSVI
T1 sequence 2: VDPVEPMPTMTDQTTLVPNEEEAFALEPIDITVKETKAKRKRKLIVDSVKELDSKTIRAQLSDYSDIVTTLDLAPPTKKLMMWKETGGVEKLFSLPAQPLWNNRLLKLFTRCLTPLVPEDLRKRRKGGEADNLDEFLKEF

[2] = molecular target: T1, SA2-SCC1 complex (SA2 80-1060 in …); assay: peptide or protein array
[3] = molecular target: T1, SA2-SCC1 complex (SA2 80-1060 in …); assay: pull-down

| Binder | Kd [2] [µM] | other results |
| --- | --- | --- |
| NYKIKYFGFDDLSESE [WAPL peptide 447-462 (third FGF motif only)] | – | Kd [1]: 78.7 µM; dH [1]: -6.81 kcal/mol; stoichiometry N [1]: 1 |
| DVSVFDFEEEQ [CTCF array peptide Y226F (position 2)] | 1.6 | – |
| KLEFFGFEDHE [WAPL array peptide from residue 425 (position 7)] | 12.4 | – |
| TGDPFGFDSDD [WAPL array peptide from residue 70 (position 6)] | 5.9 | – |
| KLSAFNFLDGS [yeast WAPL array peptide from residue 108 (position 10)] | 10.7 | – |
| FTRAYDFETED [SYCP3 array peptide from residue 21 (position 17)] | 1.96 | – |
| KIKYFGFDDLS [WAPL array peptide from residue 450 (position 8)] | 2.17 | – |
| RKMAFEFDINS [SYCP1 array peptide from residue 882 (position 15)] | 6.71 | – |
| WAPL residues 1-600 (domain or fragment) MTSRFGKTYSRKGGNGSSKFDEVFSNKRTTLSTKWGETTFMAKLGQKRPNFKPDIQEIPKKPKVEEESTGDPFGFDSDDESLPVSSKNLAQVKCSSYSESSEAAQLEEVTSVLEANSKISHVVVEDTVVSDKCFPLEDTLLGKEKSTNRIVEDDASISSCNKLITSDKVENFHEEHEKNSHHIHKNADDSTKKPNAETTVASEIKETNDTWNSQFGKRPESPSEISPIKGSVRTGLFEWDNDFEDIRSEDCILSLDSDPLLEMKDDDFKNRLENLNEAIEEDIVQSVLRPTNCRTYCRANKTKSSQGASNFDKLMDGTSQALAKANSESSKDGLNQAKKGGVSCGTSFRGTVGRTRDYTVLHPSCLSVCNVTIQDTMERSMDEFTASTPADLGEAGRLRKKADIATSKTTTRFRPSNTKSKKDVKLEFFGFEDHETGGDEGGSGSSNYKIKYFGFDDLSESEDDEDDDCQVERKTSKKRTKTAPSPSLQPPPESNDNSQDSQSGTNNAENLDFTEDLPGVPESVKKPINKQGDKSKENTRKIFSGPKRSPTKAVYNARHWNHPDSEELPGPPVVKPQSVTVRLSSKEPNQKDDGVFKAPA | – | binding result [3]: binds |
